This is an account of results in IntAct's records for PubMed 18571423.

For this experiment, the target named is rbbp7_human RBBP7 (UniProt Q16576).
Chain of rbbp7_human RBBP7 (Q16576 whole entry): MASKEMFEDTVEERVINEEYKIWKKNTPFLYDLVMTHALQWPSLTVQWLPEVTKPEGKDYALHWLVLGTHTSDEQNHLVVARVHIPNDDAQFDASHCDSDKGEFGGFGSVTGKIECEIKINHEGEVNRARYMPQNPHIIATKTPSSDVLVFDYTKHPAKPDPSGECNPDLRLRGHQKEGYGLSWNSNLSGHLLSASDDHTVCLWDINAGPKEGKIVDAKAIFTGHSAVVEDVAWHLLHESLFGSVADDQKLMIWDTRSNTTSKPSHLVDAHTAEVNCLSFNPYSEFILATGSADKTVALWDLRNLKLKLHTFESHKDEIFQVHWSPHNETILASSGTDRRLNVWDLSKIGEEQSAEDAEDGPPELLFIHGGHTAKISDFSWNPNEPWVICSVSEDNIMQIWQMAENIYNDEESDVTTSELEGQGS
“Histone H4 (Homo sapiens) (from UniProt P62805) I35T;R36S;L38D”: the “effect of a mutation on the interaction” value is recorded as “disrupting interaction”.
Regarding “Histone H4 (Homo sapiens) (from UniProt P62805) L38D;R40V;R41N”, the “effect of a mutation on the interaction” value is “disrupting interaction”.
“Histone H4 (Homo sapiens) (from UniProt P62805) R40V;R41N”: the “effect of a mutation on the interaction” value is listed as “disrupting interaction”.
